Experimental data published in patent US8357523B2, “Beta-glucosidase variant enzymes and related polynucleotides” (Codexis, Inc., priority 2009, dated 2013).

What was measured:
Assay type in all cases: biochemical
[1] = Glucose inhibition (glucose tolerance), cellobiose assay with cellobiose consumption determined by HPLC; details: pH 5, 55° C.; glucose concentration at which enzyme activity is 50% of the activity with no glucose
[2] = pNPG (p-nitrophenyl-β-D-glucopyranoside) assay of β-glucosidase activity; details: media supernatant of shake flask culture
Procedure: A single microbial colony of Bacillus megaterium containing the vector prepared in Example 1 with the CelA gene was inoculated into 3 ml Luria-Bertani (LB) Broth ([…]) containing 10 μg/mL tetracycline. Cells were grown overnight (at least 16 hrs) in an incubator at 37° C. with shaking at 250 rpm. […]
A colorimetric pNPG (p-nitrophenyl-(β-D-glucopyranoside)-based assay was used for measuring β-glucosidase activity. In a total volume of 100 μL, 20 μL clear media supernatant containing β-glucosidase enzyme was added to 4 mM pNPG (Sigma-Aldrich, Inc. St. Louis, Mo.) solution in 50 mM sodium phosphate buffer at pH6.5. The reactions were incubated at pH 6.5, 45° C. for 1 hour. The reaction mixture was quenched with 100 μL of 1M sodium carbonate pH 11 solution. The absorbance of the solution was measured at 405 nm to determine the conversion of pNPG to p-nitrophenol. The release of p-nitrophenol (ε=17,700 M−1 cm−1) was measured at 405 nm to calculate β-glucosidase activity. […]

[3] = Enzyme stability: residual activity on pNPG after pre-incubation at high temperature and low pH; details: residual activity on pNPG at pH 7, 30° C.
Procedure: Residual activity is determined by exposing the enzyme to stress conditions of elevated temperature for a period of time and then determining the β-glucosidase activity. The β-glucosidase activity of the enzyme exposed to stress conditions (“a”) is compared to that of a control in which the enzyme is not exposed to the stress conditions (“b”), and residual activity is equal to the ratio a/b. Exemplary conditions for determining thermostability are provided in Examples 9 and 13. In one embodiment the enzymes are exposed to stress conditions of 50° C. at pH 5.5 or 55° C. at pH 5.0 or 55° C. at pH 5.5, or 65° C. at pH 5.0 for about 1 hour, and assayed at 30° C., pH 7, for about 0.1 hour.
A colorimetric pNPG (p-nitrophenyl-(β-D-glucopyranoside)-based assay was used for measuring β-glucosidase activity. In a total volume of 100 μL, 20 μL clear media supernatant containing β-glucosidase enzyme was added to 4 mM pNPG (Sigma-Aldrich, Inc. St. Louis, Mo.) solution in 50 mM sodium phosphate buffer at pH6.5. The reactions were incubated at pH 6.5, 45° C. for 1 hour. The reaction mixture was quenched with 100 μL of 1M sodium carbonate pH 11 solution. The absorbance of the solution was measured at 405 nm to determine the conversion of pNPG to p-nitrophenol. The release of p-nitrophenol (ε=17,700 M−1 cm−1) was measured at 405 nm to calculate β-glucosidase activity. Detectable β-glucosidase activity was observed under high throughput screening conditions (pH 7, 50° C.).
Four CelA variants and wildtype CelA were characterized to determine their stabilities at high temperature (55° C.) and low pH (pH5.5) using the method of Example 5A. The samples containing various CelA variant enzymes were pre-incubated at pH 5.5, 55° C. for 0-6 hrs. The residual enzyme activity after the thermal challenge was measured using pNPG as substrate at pH 7, 30° C. for 1 hr. […] The mutations listed in the table are indicated relative to SEQ ID NO: 4, the wildtype CelA. These sequences included residues GTS prior to the N-terminus of SEQ ID NO: 4 (prepared as described in Example 1). […]

[4] = Activity profile at different temperatures and pH using cellobiose (10 g/L) as substrate
[5] = as above; remark: listed apart in the source
Procedure: β-glucosidase activity was also determined using a cellobiose assay, which used cellobiose as substrate. In a total volume of 100 μL, 25 μL clear media supernatant containing CelA enzyme was added to 10 g/L cellobiose (Fluka Cat. No. 22150, Sigma-Aldrich, Inc., St. Louis, Mo.) in 100 mM sodium phosphate buffer (pH 6-7) or sodium acetate buffer (pH 5-5.5). The reaction was incubated at 45-70° C. for an appropriate time (25 minutes to overnight depending on the enzyme concentration) while shaking. Glucose production was determined using an enzymatic glucose assay (K-GLUC, Megazyme, Ireland). 10 μl of each reaction was added to 190 μl GOPOD reagent (supplied as part of the K-GLUC assay kit). The reaction was incubated at 45° C. for 20 minutes and the absorbance of the solution was measured at 510 nm. The GOPOD reagent contains 50 mM Potassium phosphate buffer pH7.4, 0.011M p-hydroxybenzoic acid, 0.008% w/v sodium azide, glucose oxidase (>12,000 U/L), peroxidase (>650 U/L) and 80 mg/L 4-aminoantipyrine. The glucose oxidase enzyme in the reagent reacts with any glucose present in the sample and produces hydrogen peroxide which then reacts with the 4-aminoantipyrine to produce a quinoneimine dye in quantities proportionate with the amount of glucose present and can be measured spectrophotometrically at 510 nm. Detectable β-glucosidase activity was observed under high throughput screening conditions (i.e., pH 7, 50° C.).
The native CelA activity profile was investigated at different temperatures (40-55° C.) and pH (5.0-8.0) using cellobiose (10 g/L) as a substrate. The experimental and analytical procedures are described in Example 5.
The activity profiles for Variant Nos. 264, 366, 391, 463, and 529 were determined at different temperatures and pH using cellobiose (10 g/L) as a substrate. The experimental and analytical procedures are described in Example 5, incubating the variant with cellobiose at temperatures in the range of 45-80. The results are depicted in FIGS. 7-11. […] The temperature and pH profile for this variant is depicted in FIG. 7. […] The temperature and pH profile for this variant is depicted in FIG. 8. […] The temperature and pH profile for this variant is depicted in FIG. 9. […] (with the pH 6 optimum determined by extrapolation). The temperature and pH profile for this variant is depicted in FIG. 10. […] The temperature and pH profile for this variant is depicted in FIG. 11.

Row | Molecule | IC50 for glucose [1] | activity using pNPG as substrate [2] | % residual activity after 10 mins @ pH 5.5, 55° C. ([3]; pre-incubation 10 mins at pH 5.5, 55° C., 1 hr) [%] | % residual activity after 1 hour @ pH 5.5, 55° C. ([3]; pre-incubation 1 hour at pH 5.5, 55° C.) [%] | % residual activity after 6 hours @ pH 5.5, 55° C. ([3]; pre-incubation 6 hours at pH 5.5, 55° C., 1 hr) [%] | CelA activity at pH 4 and 70° C. [4] | pH of optimum activity [5] [pH] | temperature of optimum activity [5] [°C]
1 | T2A + A5T + I14M + N79D + G127N + A143M + H145R + V159E + A198S + A207F + F211Y + I222A + S225C + Q508R + A3R + S73A + V177P + I2037-des[A647-L663] (protein) SARITQEGAAPAAMLHPEKWPRPATQRLIDPAVEKRVDALLKQLSVEEKVGQVIQGDIGTITPEDLRKYPLGAILAGGDSGPNGDDRAPPKEWLDLADAFYRVSLEKRPGHTPIPVLFGIDAVHGHNNIGSATIFPHNIALGMTRDPELLRRIGEVTAEEMAATGIDWTFAPALSVPRDDRWGRTYEGFSEDPEIVASYSAAYVEGFQGKYGSKDFMAPGRAVACAKHFLADGGTDQGRDQGDARISEDELIRIHNAGYPPAIDAGVLTVMASFSSWQGIKHHGHKQLLTDVLKGQMGFNGFIVGDWNAHDQVPGCTKFNCPTSLIAGLDMYMAADSWKQLYENTLAQVKDGTIPMARLDDAVRRILRVKVLAGLFEKPAPKDRPGLPGLETLGSPEHRAVGREAVRKSLVLLKNDKGTLPLSPKARVLVAGDGADNIGKQSGGWTISWQGTGNRNDEFPGATSILGGIRDAVADAGGSVEFDVAGQYKTKPDVAIVVFGEEPYAEFRGDVETLEYQPDQKQDLTLLKKLKDQGIPVVAVFLSGRPMWVNPELNASDAFVAAWLPGTEGGGVADVLFTDKAGKVQHDFAGKLSYSWPRTAAQTTVNRGDADYNPLFAYGYGLTYKDKSKVGTLPEESGVPAEARQN | greater than 100 g/l | – | – | – | – | – | – | –
2 | CelA wildtype: wildtype Azospirillum irakense β-glucosidase (CelA) (SEQ ID NO: 4) (protein) STAIAQEGAAPAAILHPEKWPRPATQRLIDPAVEKRVDALLKQLSVEEKVGQVIQGDIGTITPEDLRKYPLGSILAGGNSGPNGDDRAPPKEWLDLADAFYRVSLEKRPGHTPIPVLFGIDAVHGHGNIGSATIFPHNIALGATHDPELLRRIGEVTAVEMAATGIDWTFAPALSVVRDDRWGRTYEGFSEDPEIVAAYSAAIVEGVQGKFGSKDFMAPGRIVASAKHFLADGGTDQGRDQGDARISEDELIRIHNAGYPPAIDAGVLTVMASFSSWQGIKHHGHKQLLTDVLKGQMGFNGFIVGDWNAHDQVPGCTKFNCPTSLIAGLDMYMAADSWKQLYENTLAQVKDGTIPMARLDDAVRRILRVKVLAGLFEKPAPKDRPGLPGLETLGSPEHRAVGREAVRKSLVLLKNDKGTLPLSPKARVLVAGDGADNIGKQSGGWTISWQGTGNRNDEFPGATSILGGIRDAVADAGGSVEFDVAGQYKTKPDVAIVVFGEEPYAEFQGDVETLEYQPDQKQDLALLKKLKDQGIPVVAVFLSGRPMWVNPELNASDAFVAAWLPGTEGGGVADVLFTDKAGKVQHDFAGKLSYSWPRTAAQTTVNRGDADYNPLFAYGYGLTYKDKSKVGTLPEESGVPAEARQNAGIYFRAGALRLPGRFL | – | confirmed | 0 | 0 | 0 | detectable | 6.0 | 47
